Data on one molecule can be found in US20210238279A1 (Johns Hopkins, published 2021).

One assay deals with T1, human ZnT8-His (human, UniProt Q8IWU4-2 1-320, limits assumed).
T1 construct: Over-expressed in HEK293 cells, solubilized with DDM and immobilized on Ni-NTA plates (native or unfolded with 2% SDS), or SDS-denatured on immunoblots; also called human ZnT8 with C-terminal poly-histidine tag; not shown: C-terminal poly-histidine tag
T1 sequence (looked up): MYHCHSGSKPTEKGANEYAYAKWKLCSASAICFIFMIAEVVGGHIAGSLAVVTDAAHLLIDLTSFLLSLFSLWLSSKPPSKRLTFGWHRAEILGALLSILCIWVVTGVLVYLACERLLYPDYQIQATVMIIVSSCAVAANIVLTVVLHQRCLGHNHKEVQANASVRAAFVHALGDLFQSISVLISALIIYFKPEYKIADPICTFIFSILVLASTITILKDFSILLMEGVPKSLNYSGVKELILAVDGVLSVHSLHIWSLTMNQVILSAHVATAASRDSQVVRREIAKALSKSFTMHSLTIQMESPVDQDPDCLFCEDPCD
As to the kind of experiment: ELISA, ZnT8-His on Ni-NTA plate, HRP-conjugated secondary antibody; binder taken from the axis label and paragraph 166; curve taken as human. The text has this:
FIG. 7A-7D. mAb binding specificities (FIG. 7A) mAb binding to ZnT8-His immobilized to Ni-NTA plate. Bound mAb20 (red) or mAb39 (magenta) was detected by an HRP-conjugated secondary antibody. Solid lines are least-squares fits of binding datapoints to a one-component binding process. Error bars are standard errors (n=8). (FIG. 7B) SDS-denatured mouse ZnT8-His (labeled as M) and human ZnT8-His (labeled as H) on immunoblots were detected by mAb20 or mAb39 as indicated. […] (FIG. 7C) Detection of endogenous human ZnT8 in EndoC-βH cells by mAb20 or […] immunoblotting. An equal amount of EndoC-βH lysate (5 μg total protein) was loaded to each lane. (FIG. 7D) Immunoblotting of HEK lysates with or with over-expression of a ZnT homolog as indicated. An approximately equal amount of total lysate protein (5 μg) was located to each lane, probed by either mAb20, mAb39, or anti-FALG antibody as indicated. FIG. 8. HTRF response to human ZnT8, mouse ZnT8 and human ZnT3.
Binding specificities. […] Of note, the epitope-masking effect of ZnT8 immobilization weakened the apparent binding affinities of both mAbs as compared to the affinities determined by flow-cytometry, and such a weakening effect was more pronounced for mAb39, probably due to a closer proximity of the mAb39 epitope to the C-terminal His-tag. Next, we compared the immunoreactivities of mAbs to denatured ZnT8.
For orientation: ELISA stands for enzyme-linked immunosorbent assay.

Assay [1] concerns the target T2, monomeric human ZnT8 CTD-His antigen (aa 275-369) (human, UniProt Q8IWU4 275-369).
T2 construct: range 275-369; Immobilized on Ni-NTA plates through the C-terminal poly-histidine tag; also called CTD-His monomer; monomeric CTD antigen; not shown: C-terminal poly-histidine tag
T2 sequence (looked up): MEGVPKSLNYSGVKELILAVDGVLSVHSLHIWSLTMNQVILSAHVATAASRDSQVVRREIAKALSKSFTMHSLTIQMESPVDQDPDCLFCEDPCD
The assay can be described thus: ELISA, monomeric CTD-His on Ni-NTA plate. The text has this: Error bars represent standard deviations. (FIG. 1B) ELISA against a monomeric CTD antigen immobilized to Ni-NTA plate via a C-terminal poly-histidine tag. CTDA and NTDA were used a positive and negative control, respectively (Z>0.5).
Materials and Methods Generating hybridoma. Four pairs of male/female homozygous Slc30a8-1- mice were immunized by weekly intraperitoneal injections of a human ZnT8 antigen (the R325 variant) in reconstituted proteoliposomes. All experiments with mice were approved by the Institutional Animal Care and Use Committee of Johns Hopkins University School of Medicine. Serum antibody titering and validation of anti-ZnT8 specificity by CRISPR/Cas9 ZnT8-knockout were described previously (36). Following a final immunization boost, spleens were isolated. Splenocytes were fused with an immortalized myeloma cell line Sp2/0-Ag14 (CRL-1581, ATCC) at a 4:1 splenocytes-to-myeloma ratio by adding 1 ml of 50% PEG1500 (w/v, Roche) to the cell mixture drop-by-drop over 1 min (37). […] Bound antibodies were detected by an HRP-conjugated goat anti-mouse secondary antibody (Invitrogen, cat. #62-6500) with 1:3000 dilutions in assay buffer, followed by ABTS colorimetric reaction (Life Technologies) and signal readout at 415 nm on a plate reader (Molecular Device). […]

B1: mAb39 (antibody, V domains shown)
VH: QVQLQQPGAELVKPGASVKLSCKASGYSFTTYWMHWVKQRPGQGLEWVGDINPRNGRTNYNEKSKSKATLTVDISSSTVYMQVSSLTSEDSAVYYCAIWSGAMDYWGPGTSVTVSS
VL: DVVMTQTPLSLPVSLGDQPSISCKSSQSLVHNNGNTYLHWYLQKPGQSPKLLIYKVSNRFSGVPDRFSGSGSGTDFTLKISRVEAEDLGVYFCSQTTHVPPTFGGGTKLEIKR
notes: Mouse hybridoma mAb purified on protein A/G; In some assays it was labelled with Alexa Fluor 555 or d2; also called monoclonal antibody mAb39; anti-ZnT8 mAb39
Broadly, the EC50 (read off the curve) is the concentration needed to bring the measured effect to its halfway point. A higher EC50 (read off the curve) goes with a less potent agent. Consider B1, for which the concentration for a half-maximal effect (EC50 (read off the curve)) in the assay with human ZnT8-His is around 10 nM. Also, the binding result in assay [1] is “no binding”.
